Assay [1] has as its target human HER2 receptor overexpressed on T6-17 cells (NIH3T3-derived) (human, UniProt P04626 23-1255). Put plainly: cell-based or functional assay.
Assay [2] has as its target T1, Recombinant purified HER2 receptor composed of the ectodomain of HER2 fused to the Fc of human IgG (human, UniProt P04626 23-652, limits assumed).
T1 construct: extracellular domain; Provided by Dr. Che Law, Xcyte Therapeutics; amine-coupled to the Biacore chip (3500 RU); also called immobilized HER2; p185; not shown: Fc of human IgG
Put plainly: Biacore SPR, immobilized HER2-Fc. On the procedure: (§1) Binding experiments were performed with the surface plasmon resonance based biosensor instrument Biacore 3000 (Biacore AB, Uppsala, Sweden) at 25° C. Recombinant purified HER2 receptor composed of the ectodomain of HER2 fused to the Fc of human IgG was provided by Dr. Che Law, Xcyte Therapeutics, Seattle, Wash. Immobilization of HER2 in the sensor surface was performed following the standard amine coupling procedure according to manufacturer's instructions. Briefly, 35 μL of a solution containing 0.2M N-ethyl-N-(dimethylaminopropyl) carbodiimide (EDC) and 0.05 M N-hydroxysuccinimide (NHS) were injected at a flow rate of 5 μL/min to activate carboxyl groups on the sensor chip surface. HER2 (40 ng/mL in 10 mM NaOAc buffer, pH 5.0) was flowed over the chip surface at a flow rate of 20 μL/min until the desired level bound protein was reached. Unreacted protein washed out and unreacted activated groups were blocked by the injection of 35 μL of 1 M ethanolamine at 5 μL/min. […] A reference surface was generated simultaneously under the same conditions but without HER2 injection and used as a blank to correct for instrument and buffer artifacts. Peptides were injected at variable concentrations at 20 μL/min flow rate and binding to the HER2 receptor immobilized on the chip was monitored in real time. Each sensorgram consists of an association phase (first 240s), reflecting binding of the injected peptide to the receptor, followed by a dissociation phase (300s), during which the running buffer is passed over the chip and the bound peptide is being washed off the receptor surface.
In general terms: SPR reads the build-up and loss of mass on a sensor chip optically.

The target of assay [3] is T1, Recombinant purified HER2 receptor …. Put plainly: Biacore SPR, HER2 ectodomain-Fc immobilized, peptide as analyte. Here is the method:
as §1

Assay [4] has the same target. Put plainly: Biacore competition, AHNP preinjected 0-90 µM, then 1 nM rhumAb 4D5 (competitor) on immobilized HER2-Fc; initial rate of antibody binding. Here is the method: as §1, with “Each sensorgram consists of an association phase (first 240s), reflecting binding of the injected peptide to the receptor, followed by a dissociation phase (300s), during which the running buffer is passed over the chip and the bound peptide is being washed off the receptor surface.” left out

Positions of bridges follow the written chain, without caps; N, C: chain ends. No end group written: not given here.

B1: AHNP analogue 2, FCDGFYACYMDV-OH (cyclic) (peptide)
peptide: FCDGFYACYMDV-OH
modifications: disulfide 2-8 (inferred)
notes: also called peptide 2
The term Kd denotes the free concentration of one partner at which half of the binding sites on the other are occupied at equilibrium, for simple one-to-one binding. As usually defined, the koff is the first-order rate constant of dissociation. A word on the kon: it is a measure of how fast the partners come together. Regarding B1, in assay [1], the “% inhibition (inhibition of T6-17 cell proliferation in MTT assays, 1 µg/mL peptide)” value (“% inhibition” below) stood at 22.3%. In addition, the “fold higher affinity than the linear analogue 9” value in assay [2] is over 5 fold. Besides, in assay [3], the Kd stood at 650 nM, the dissociation rate constant (koff) came to 0.000643 s⁻¹ and the kon came out at 990 M⁻¹ s⁻¹.

B2: AHNP analogue 5, FCDGFYACYMDVK-NH2 (peptide)
peptide: FCDGFYACYMDVK-NH2
modifications: disulfide 2-8 (inferred)
notes: Lys added as C-terminal residue; also called peptide 5
Regarding B2, in assay [3], the Kd came out at 830 nM, the dissociation rate constant (koff) came to 0.000512 s⁻¹ and the on-rate constant (kon) was 617 M⁻¹ s⁻¹.

B3: AHNP analogue 7, GFCDGFYACYMDV-OH (peptide)
peptide: GFCDGFYACYMDV-OH
modifications: disulfide 3-9 (inferred)
notes: Gly placed at the N-terminus before Phe1; also called peptide 7
Regarding B3, in assay [3], the Kd was found to be 730 nM, the koff was 0.000808 s⁻¹ and the kon was determined as 1110 M⁻¹ s⁻¹.

B4: AHNP analogue 8, FCGDGFYACYMDV-OH (peptide)
peptide: FCGDGFYACYMDV-OH
modifications: disulfide 2-9 (inferred)
notes: First AHNP analogue designed; has one more turn Gly than peptide 2; also called peptide 8
B4: the “% inhibition” value in assay [1] is 18.4%. Besides, in assay [3], the Kd stood at 760 nM, the koff worked out at 0.000701 s⁻¹ and the on-rate (kon) was determined as 922 M⁻¹ s⁻¹.

B5: AHNP analogue 9, FCDGFYACYMDV-OH (linear, not cyclized) (peptide)
peptide: FCDGFYACYMDV-OH
modifications: cysteine pairing not given here
notes: also called peptide 9; linear analogue 9
As to B5, the “% inhibition” value in assay [1] turned out to be 12.8%. For the same molecule, in assay [3], the Kd amounted to 3560 nM, the koff stood at 0.00106 s⁻¹ and the on-rate (kon) was 298 M⁻¹ s⁻¹.

B6: AHNP (anti-HER2/neu peptide mimetic), peptide 1, FCDGFYACYMDV-NH2 (peptide)
peptide: FCDGFYACYMDV-NH2
modifications: disulfide 2-8
notes: Designed from the CDR-H3 loop of rhumAb 4D5; also called anti-HER2 peptide
The term IC50 denotes the concentration needed to halve the response being measured. As for B6, the “% inhibition” value in assay [1] worked out at 35.5%. The “fold increase in binding affinity against peptide 2” value in assay [2] is over 2 fold. For the same molecule, in assay [3], the dissociation constant Kd was 320 nM, the koff is 0.000453 s⁻¹ and the kon stood at 1410 M⁻¹ s⁻¹. Moreover, the IC50 in assay [4] was found to be 3400 nM.

B7: AHNP analogue 3, YCDGFYACYMDV-NH2 (peptide)
peptide: YCDGFYACYMDV-NH2
modifications: disulfide 2-8 (inferred)
notes: N-terminal Phe of AHNP replaced with Tyr; also called peptide 3
With B7, the “% inhibition” value in assay [1] came to 59.6%. In addition, the “fold improvement in binding (Phe replaced with Tyr)” value in assay [2] was over 2 fold. For the same molecule, in assay [3], the equilibrium dissociation constant (Kd) stood at 150 nM, the off-rate (koff) amounted to 0.000294 s⁻¹ and the kon stood at 1960 M⁻¹ s⁻¹.

B8: AHNP analogue 6, FCDGFYACYKDV-OH (peptide)
peptide: FCDGFYACYKDV-OH
modifications: disulfide 2-8 (inferred)
notes: Met of peptide 2 replaced by Lys; also called peptide 6
As to B8, in assay [1], the “% inhibition” value is 8.4%. Also, the “fold decrease in affinity (Lys substituted for Met)” value in assay [2] came out at 8.8 fold. In assay [3], the Kd amounted to 5700 nM, the dissociation rate constant (koff) was 0.00125 s⁻¹ and the on-rate (kon) is 219 M⁻¹ s⁻¹.
